# Experimental data: patent publication US11298427B2, “Prodrugs comprising a pyroglutamate linker” (Ascendis Pharma A/S, priority 2015, dated 2022)
# Where two headings read alike, the source gives them in different places.
# Test: hydrolysis / release kinetics of linker-peptide conjugates in buffer at 37° C., LCMS analysis, half-life by curve fitting
# Format: physicochemical
# Protocol: The hydrolysis kinetics of PEGylated linker-peptide conjugate 8 were studied at pH 7.4, 37° C. and pH 8.9, 37° C. Therefore, the starting material 8 was dissolved in two different buffers (60 mM phosphate, pH 7.4 and 100 mM borate pH 8.9, respectively). The resulting solutions were incubated in a water bath at 37° C. At given points in time samples were withdrawn, quenched and analyzed by LCMS. Curve fitting software was applied to determine the corresponding half-life of the release.
# Release kinetics were setup and analyzed according to example 5 with additional buffers at 37° C.
# Release kinetics were setup and analyzed according to example 5 with changed buffers.
# [1] = sodium phosphate buffer, pH 7.4, 100 mM sodium phosphate, pH 7.4, 37° C., read-out: half-life (converted)
smiles,measurement,setting,value
CN[C@@H](CCC(=O)NCCCC[C@H](NC(=O)[C@H](CO)NC(C)=O)C(=O)N[C@@H](Cc1ccc(O)cc1)C(=O)O)C(=O)NCCOCCOCCOCCOCCOCCOCCOCCOC [Compound 25b],half-life,[1],164 days
COCCOCCOCCOCCOCCOCCOCCOCCNC(=O)[C@@H](N)CCC(=O)NCCCC[C@H](NC(=O)[C@H](CO)NC(C)=O)C(=O)N[C@@H](Cc1ccc(O)cc1)C(=O)O [Compound 8],half-life,"borate buffer, pH 8.9, 100 mM borate, pH 8.9, 37° C., read-out: half-life of release of Ac-Ser-Lys-Tyr-OH (9) (converted)",220 days
same,half-life,"phosphate buffer, pH 7.4, 60 mM phosphate, pH 7.4, 37° C., read-out: half-life of release of Ac-Ser-Lys-Tyr-OH (9) (converted)",56 days
CN[C@@H](CCC(=O)NCCCC[C@H](NC(=O)[C@H](CO)NC(C)=O)C(=O)N[C@@H](Cc1ccc(O)cc1)C(=O)O)C(=O)N(C)CCOCCOCCOCCOCCOCCOCCOCCOC [Compound 25c],half-life,"HEPES buffer, pH 7.4, 60 mM HEPES, 130 mM NaCl, pH 7.4, 37° C., read-out: half-life (converted)",149 days
same,half-life,"sodium borate buffer, pH 9, 100 mM sodium borate, pH 9.0, 37° C., read-out: half-life (converted)",92 days
same,half-life,"sodium citrate buffer, pH 4, 100 mM sodium citrate, pH 4.0, 37° C., read-out: half-life (converted)",129 days
same,half-life,"sodium citrate buffer, pH 5.5, 100 mM sodium citrate, pH 5.5, 37° C., read-out: half-life (converted)",207 days
same,half-life,"sodium citrate buffer, pH 6.5, 30 mM sodium citrate, pH 6.5, 37° C., read-out: half-life (converted)",339 days
same,half-life,"sodium citrate buffer, pH 6.5, 100 mM sodium citrate, pH 6.5, 37° C., read-out: half-life (converted)",336 days
same,half-life,"sodium phosphate buffer, pH 6.5, 100 mM sodium phosphate, pH 6.5, 37° C., read-out: half-life (converted)",35 days
same,half-life,"sodium phosphate buffer, pH 7.4, 30 mM sodium phosphate, pH 7.4, 37° C., read-out: half-life (converted)",55 days
same,half-life,"sodium phosphate buffer, pH 7.4, 60 mM sodium phosphate, pH 7.4, 37° C., read-out: half-life (converted)",36 days
same,half-life,[1],55 days
same,half-life,"sodium phosphate buffer, pH 7.4, 200 mM sodium phosphate, pH 7.4, 37° C., read-out: half-life (converted)",17 days
COCCOCCOCCOCCOCCOCCOCCOCCN(C)C(=O)[C@@H](N)CCC(=O)NCCCC[C@H](NC(=O)[C@H](CO)NC(C)=O)C(=O)N[C@@H](Cc1ccc(O)cc1)C(=O)O [Compound 25a],half-life,[1],26 days
